These results are taken from PMC3753650.

In general, Kd refers to the constant that tells how readily two partners part at equilibrium.

Data set [1] deals with T1, RNA polymerase sigma70 holoenzyme, molecular beacon derivative (Ec Esigma70 beacon) (Escherichia coli) (UniProt P0A7Z4+P0A7Z4+P0A8V2+P0A8T7+P0A800+P00579). In words: RNAP beacon fluorescence. Conditions: Equilibrium RNAP molecular beacon fluorescence, 25 C and 1 nM RNAP in competition assays, buffer, salt and pH not in material, Kd error 20% (>0.4 nM), ~50% ….
Data set [2] addresses T1, RNA polymerase sigma70 holoenzyme, molecular beacon derivative (Ec Esigma70 beacon) (Escherichia coli). Description: competition. Conditions: Equilibrium RNAP molecular beacon fluorescence; 25 C and 1 nM RNAP in competition assays; buffer, salt and pH not in material; Kd error 20% (>0.4 nM), ~50% ….

For “TATTTGACATCAGGAAAATTTTTTGGAATAAT / TCCAAAAAATTTTCCTGATGTCAAATA [probe 18(-12A)]”, the binding signal (fold tighter than 17(-12A)) in data set [1] worked out at 300.

As for “TATTTGACATCAGGAAAATTTTTCTGTT / ACAGAAAAATTTTCCTGATGTCAAATA [probe 2(-11T)]”, the binding signal (fold weaker than probe 2) in data set [1] was 5. Regarding “TATTTGACATCAGGAAAATTTTTCTGTTTAA (double strand) [probe 22(-11T)]”, the Kd in data set [1] worked out at 120 nM. Still for that read-out and setting: the result for “AAAAAAAGAATTTGACATCAGGAAAATTTTTTGGT (double strand) [probe 24]” reads 0.19 nM. In the case of “TATTTGACATCAGGAAAATTTTTCTGTTT / ACAGAAAAATTTTCCTGATGTCAAATA [probe 3(-11T)]”, the binding signal (fold weaker than probe 3) in data set [1] worked out at 5. Consider “TGGTTGACTTTTGCCAGATACTGAGGCTGGCT / GCCTCAGTATCTGGCAAAAGTCAACCA [probe 12]”, for which the Kd in data set [1] was 11 nM. Regarding “TATTTGACATCAGGAAAATTTTTCTGTA / TTATACAGAAAAATTTTCCTGATGTCAAATA [probe 28]”, in data set [1], the binding signal (fold tighter than probe 19) came out at 5.

“TATTTGCTTTCAGGAAAATTTTTCTGTATAAA / CAGAAAAATTTTCCTGAAAGCAAATA [probe 8(-7A)]”: in data set [1], the binding signal (fold weaker than probe 8) is 210. In the case of “TATTTGACATCAGGAAAATTTTTTGGAATAA / TCCAAAAAATTTTCCTGATGTCAAATA [probe 17(-12A)]”, in data set [1] (strongly weaker than probe 17), the binding signal (fold tighter than 16(-12A)) was 6.

With “AAAAAAAGAATTTGACATCAGGAAAATTTTTTGGTTGCT / ACCAAAAAATTTTCCTGATGTCAAATTCTTTTTTT [probe 26]”, the Kd in data set [1] was below 0.1 nM.

Consider “GGAAAATTTTTTGGTTTAATAGA / ACCAAAAAATTTTCC [probe 9(-11T)]”, for which the binding signal (fold weaker than probe 9) in data set [1] stood at 300.

In the case of “GGAAAATTTTTTGGTATAAAAGA / ACCAAAAAATTTTCC [probe 9(-7A)]”, the binding signal (fold weaker than probe 9) in data set [1] turned out to be 710. In the case of “TATTTGACATCAGGAAAATTTTTCTGTTGTTA / ACAGAAAAATTTTCCTGATGTCAAATA [probe 11(-7A)]”, the binding signal (fold weaker than probe 11) in data set [1] was 2.4. Consider “TATTTGACATCAGGAAAATTTTTCTGTTTAA / ACAGAAAAATTTTCCTGATGTCAAATA [probe 5(-11T)]”, for which the binding signal (fold weaker than probe 5) in data set [1] was 200. Turning to “TATTTGACATCAGGAAAATTTTTCTGTTTAAA / ACAGAAAAATTTTCCTGATGTCAAATA [probe 6(-11T,-7A)]”, the binding signal (fold weaker than probe 6(-11T)) in data set [1] was found to be 110. Consider “AAAAAAAGAATTTGACATCAGGAAAATTTTTTGGTTGCT (double strand) [probe 25]”, for which the Kd in data set [1] was determined as 11 nM.

For the sequence “TATTTGACATCAGGAAAATTTTTCTGTATAA / CAGAAAAATTTTCCTGATGTCAAATA [probe 31]”, the binding signal (fold weaker than probe 5) in data set [2] is 10. On to “TGGTTGACTTTTGCCAGATACTGAGGCTGGC / GCCTCAGTATCTGGCAAAAGTCAACCA [probe 13]”, for which the Kd in data set [1] worked out at 100 nM. Same read-out and setting: the result for “TATTTGACATCAGGAAAATTTTTCTGTTTAAT (double strand) [probe 23(-11T)]” reads 16 nM. “TATTTGACATCAGGAAAATTTTTTGGA (double strand) [probe 15(-12A)]”: the binding signal (fold weaker than probe 15) in data set [1] is 4. With “TGGTTGACTTTTGCCAGATACTGAGGCTGGCA / GCCTCAGTATCTGGCAAAAGTCAACCA [probe 12(-7A)]”, the Kd in data set [1] is 100 nM. As for “TATTTGACATCAGGAAAATTTTTCTGTTTAAT / ACAGAAAAATTTTCCTGATGTCAAATA [probe 6(-11T)]”, the binding signal (fold weaker than probe 6) in data set [1] (~120-fold tighter than 5(-11T)) worked out at 1000.

With “TATTTGACATCAGGAAAATTTTTCTGT (double strand) [probe 1]”, the Kd in data set [1] came out at 62 nM. Turning to “AAAAAAAGAATTTGACATCAGGAAAATTTTTTGGT / AGCAACCAAAAAATTTTCCTGATGTCAAATTCTTTTTTT [probe 27]”, the Kd in data set [1] is below 0.1 nM. As for “TATTTGACATCAGGAAAATTTTTCTGTAGTTA / ACAGAAAAATTTTCCTGATGTCAAATA [probe 10(-7A)]”, the binding signal (fold weaker than probe 10) in data set [1] was found to be 8. With “TATTTGACATCAGGAAAATTTTTCTGTATAA / ACAGAAAAATTTTCCTGATGTCAAATA [probe 5]”, the binding signal (fold tighter than probe 2) in data set [2] turned out to be 50. Turning to “TATTTGACATCAGGAAAATTTTTCTGTA / ATTATACAGAAAAATTTTCCTGATGTCAAATA [probe 29]”, in data set [1], the binding signal (fold tighter than probe 19) turned out to be 13. Consider TATAATGGGTTCAT [probe 30], for which the Kd in data set [1] stood at 73 nM.
